Measurements published in the supplement of paper PMC6379048.

Tests used:
Test in all cases: EC50 of free RNA motif oligo competing protein binding to immobilised probe
CPSF3 = target: T1, CPSF3 (UniProt Q9UKF6)
T1 sequence: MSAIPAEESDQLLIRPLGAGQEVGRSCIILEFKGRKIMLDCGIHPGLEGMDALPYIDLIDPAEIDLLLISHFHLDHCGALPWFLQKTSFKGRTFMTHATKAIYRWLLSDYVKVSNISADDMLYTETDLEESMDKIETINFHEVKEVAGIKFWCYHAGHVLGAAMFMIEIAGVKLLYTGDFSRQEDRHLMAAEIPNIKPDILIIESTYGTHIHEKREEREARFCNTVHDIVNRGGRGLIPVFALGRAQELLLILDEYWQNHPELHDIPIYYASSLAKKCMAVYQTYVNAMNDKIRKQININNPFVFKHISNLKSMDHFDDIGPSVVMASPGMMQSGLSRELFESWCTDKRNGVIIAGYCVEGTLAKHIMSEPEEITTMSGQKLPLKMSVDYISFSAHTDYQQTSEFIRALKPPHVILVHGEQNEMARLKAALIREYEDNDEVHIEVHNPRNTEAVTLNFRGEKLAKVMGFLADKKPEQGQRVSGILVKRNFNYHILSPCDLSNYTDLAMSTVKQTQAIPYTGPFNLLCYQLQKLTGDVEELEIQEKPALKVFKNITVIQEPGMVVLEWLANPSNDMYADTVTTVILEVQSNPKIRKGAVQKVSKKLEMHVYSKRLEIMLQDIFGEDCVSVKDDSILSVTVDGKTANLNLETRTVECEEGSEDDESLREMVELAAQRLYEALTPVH
Outline: (§1)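 To obtain EC50, data were fitted with a four-parameter log-logistic model; Kd was then EC50 multiplied by a protein-dependent depletion factor. Beforehand, free RNA oligos (0 nM to 30 μM) were pre-incubated with HEK293-FT lysate (2.5 mg protein/well) for 1 h at 4°C. The lysate then spent 30 min at 4°C with the same 5′-amino-C6 oligos coupled to NHS-Sepharose beads, and bound proteins were quantified by label-free LC-MS/MS, normalised to the control.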

ISY1 = target: T2, ISY1 (UniProt Q9ULR0)
T2 sequence: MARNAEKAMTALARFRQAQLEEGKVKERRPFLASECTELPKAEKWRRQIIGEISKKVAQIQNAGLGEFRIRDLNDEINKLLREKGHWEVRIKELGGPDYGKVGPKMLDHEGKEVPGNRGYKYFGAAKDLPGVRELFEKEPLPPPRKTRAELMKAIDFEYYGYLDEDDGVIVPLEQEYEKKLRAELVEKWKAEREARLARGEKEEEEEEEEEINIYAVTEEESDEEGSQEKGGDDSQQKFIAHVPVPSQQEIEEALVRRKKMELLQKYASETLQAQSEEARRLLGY
Outline: as §1

LRPPRC = LRPPRC (UniProt P42704)
Outline: as §1

LSM6 = target: T3, LSM6 (UniProt P62312)
T3 sequence: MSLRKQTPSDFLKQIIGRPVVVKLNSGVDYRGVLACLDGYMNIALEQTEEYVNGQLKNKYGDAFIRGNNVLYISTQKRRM
Outline: as §1

SRSF3 = target: T4, SRSF3 (UniProt P84103)
T4 sequence: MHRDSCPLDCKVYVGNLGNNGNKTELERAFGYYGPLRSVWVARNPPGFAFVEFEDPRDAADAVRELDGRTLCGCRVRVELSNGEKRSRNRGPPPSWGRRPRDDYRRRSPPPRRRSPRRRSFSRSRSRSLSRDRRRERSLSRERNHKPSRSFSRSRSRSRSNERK
Outline: as §1

ZFP36L2 = target: T5, ZFP36L2 (UniProt P47974)
T5 sequence: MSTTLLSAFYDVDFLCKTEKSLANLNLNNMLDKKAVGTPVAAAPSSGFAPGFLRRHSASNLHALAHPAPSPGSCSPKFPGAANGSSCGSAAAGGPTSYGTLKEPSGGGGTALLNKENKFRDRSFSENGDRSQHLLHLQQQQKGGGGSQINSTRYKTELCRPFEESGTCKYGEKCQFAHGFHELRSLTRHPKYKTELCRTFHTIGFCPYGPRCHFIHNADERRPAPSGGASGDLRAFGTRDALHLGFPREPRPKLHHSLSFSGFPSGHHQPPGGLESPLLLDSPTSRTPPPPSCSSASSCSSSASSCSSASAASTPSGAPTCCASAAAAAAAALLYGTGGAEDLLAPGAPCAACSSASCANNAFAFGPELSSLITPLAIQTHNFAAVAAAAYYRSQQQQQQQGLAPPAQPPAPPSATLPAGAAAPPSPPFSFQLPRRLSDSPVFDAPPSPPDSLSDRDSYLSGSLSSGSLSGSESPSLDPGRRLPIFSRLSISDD
Outline: as §1

Sequence	EC50 (CPSF3) [nM]	EC50 (ISY1) [nM]	EC50 (LRPPRC) [nM]	EC50 (LSM6) [nM]	EC50 (SRSF3) [nM]	EC50 (ZFP36L2) [nM]
AAUAAA	57.4	914	2880	797	3030	1830
CUGUCCU			2270		2620	
UAUUUAU	598	724		447		61.8
